Assay results reported in paper PMC11464722 (Nature Communications, 2024).

Assays:
[1] = molecular target: SNAP-tagged murine µOR on HEK293 cells (murine, UniProt P42866, SNAP-Lumi4-Tb (terbium cryptate) on the SNAP tag); test: AlphaScreen or HTRF
[2] = molecular target: SNAP-tagged murine µOR on HEK293 cells (murine, UniProt P42866 1-398); test: AlphaScreen or HTRF
[3] = molecular target: human μ-opioid receptor, ssf-tagged, on HEK293 cells (Homo sapiens (Human)., UniProt P35372); test: immunostaining of cells or tissue
Sequence of human μ-opioid receptor, ssf-tagged, on HEK293 cells (P35372 whole entry): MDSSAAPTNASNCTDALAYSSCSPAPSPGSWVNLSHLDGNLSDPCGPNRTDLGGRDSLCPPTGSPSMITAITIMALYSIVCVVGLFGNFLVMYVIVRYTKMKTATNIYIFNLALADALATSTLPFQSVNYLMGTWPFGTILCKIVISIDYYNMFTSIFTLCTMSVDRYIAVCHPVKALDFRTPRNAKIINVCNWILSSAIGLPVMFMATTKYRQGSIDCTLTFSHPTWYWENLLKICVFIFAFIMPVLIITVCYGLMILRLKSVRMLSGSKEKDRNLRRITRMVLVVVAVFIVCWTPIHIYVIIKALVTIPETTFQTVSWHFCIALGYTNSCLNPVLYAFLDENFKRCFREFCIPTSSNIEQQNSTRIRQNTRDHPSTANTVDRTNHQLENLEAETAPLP

[4] = molecular target: murine κ-opioid receptor, ssf-tagged, on HEK293 cells (Mus musculus (Mouse)., UniProt P33534); test: flow cytometry on cells
Sequence of murine κ-opioid receptor, ssf-tagged, on HEK293 cells (P33534 whole entry): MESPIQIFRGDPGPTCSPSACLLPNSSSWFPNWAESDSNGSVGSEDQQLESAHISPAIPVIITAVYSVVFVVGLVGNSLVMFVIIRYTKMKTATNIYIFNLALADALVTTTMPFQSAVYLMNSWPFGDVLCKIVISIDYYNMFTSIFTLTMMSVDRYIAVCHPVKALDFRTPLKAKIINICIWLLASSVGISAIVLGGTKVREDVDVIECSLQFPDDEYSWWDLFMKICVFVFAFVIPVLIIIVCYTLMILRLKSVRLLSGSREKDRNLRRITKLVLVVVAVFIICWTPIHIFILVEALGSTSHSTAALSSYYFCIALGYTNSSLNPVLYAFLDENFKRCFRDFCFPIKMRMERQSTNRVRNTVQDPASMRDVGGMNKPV

[5] = molecular target: murine nociceptin opioid receptor, ssf-tagged, on HEK293 cells (Mus musculus (Mouse)., UniProt P35377); test: flow cytometry on cells
Sequence of murine nociceptin opioid receptor, ssf-tagged, on HEK293 cells (P35377 whole entry): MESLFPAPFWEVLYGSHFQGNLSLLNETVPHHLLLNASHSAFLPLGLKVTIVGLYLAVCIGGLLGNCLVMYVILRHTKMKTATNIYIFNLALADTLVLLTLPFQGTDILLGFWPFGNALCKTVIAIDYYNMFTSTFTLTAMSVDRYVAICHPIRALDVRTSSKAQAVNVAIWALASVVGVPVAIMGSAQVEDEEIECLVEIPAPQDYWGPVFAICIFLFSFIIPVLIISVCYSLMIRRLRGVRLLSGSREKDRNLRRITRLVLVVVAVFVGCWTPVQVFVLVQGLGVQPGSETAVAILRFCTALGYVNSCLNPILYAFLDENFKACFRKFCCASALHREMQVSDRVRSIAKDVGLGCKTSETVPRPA

Sequence of SNAP-tagged murine µOR on HEK293 cells (murine, UniProt P42866 1-398) (P42866 whole entry): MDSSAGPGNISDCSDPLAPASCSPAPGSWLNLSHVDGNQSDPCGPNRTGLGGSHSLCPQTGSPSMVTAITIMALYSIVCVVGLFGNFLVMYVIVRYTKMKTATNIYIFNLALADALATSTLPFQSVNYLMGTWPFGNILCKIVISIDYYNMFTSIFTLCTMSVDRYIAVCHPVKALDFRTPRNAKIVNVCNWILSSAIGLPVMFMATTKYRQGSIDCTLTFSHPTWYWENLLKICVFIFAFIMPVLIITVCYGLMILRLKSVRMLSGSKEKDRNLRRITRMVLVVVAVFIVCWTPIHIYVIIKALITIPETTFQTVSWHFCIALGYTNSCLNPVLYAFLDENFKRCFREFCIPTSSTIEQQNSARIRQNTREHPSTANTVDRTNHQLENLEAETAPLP
Sequence of SNAP-tagged murine µOR on HEK293 cells (murine, UniProt P42866, SNAP-Lumi4-Tb (terbium cryptate) on the SNAP tag) (P42866 whole entry): as above

B1: NbE (NbE-6xHis, unlabeled) (VHH)
VHH: QVQLVESGGGLVQAGGSLRLSCAASGSISSISTMGWYRQAPGNERELVAAITSGGSTNYADSVKGRFTISRDNAKNTVYLQMNSLKPEDTAVYYCNFKYYSGSYFYKSEYDYWGQGTQVTVSS
With B1 the Ki [1] was 18 nM.

B2: linear peptide 5 (NbE CDR3, 12 residues) (peptide)
peptide: Ac-YYSGSYFYKSEY-NH2
Work on B2 yielded a Ki [2] of 1300 nM.

B3: linear peptide 6 (NbE CDR3 residues 100-113, 14 residues) (peptide)
peptide: KYYSGSYFYKSEYD
B3 was tested, and the Ki [2] was 3100 nM.

B4: HA-tagged NbE (VHH)
VHH: B1 VHH
B4: binds [3].

B5: NbE conjugated with Alexa Fluor 488 (VHH)
VHH: B1 VHH
B5: no binding (tested: 10 μM) [4]; no binding (tested: 10 μM) [5].
